Consider 4 molecules from US20080267980A1 (MUSC FOUNDATION FOR RESEARCH DEVELOPMENT, published 2008).

Assay [1] addresses T1, Human C3dg-biotin (human, UniProt P01024 955-1303, biotin (site not stated) in the SPR experiments).
T1 construct: domain: C3dg; In the ELISA it is purified C3dg coated on wells; also called C3dg ligand; CR2 ligand C3dg
In words: SPR (referred to). Here is the method: (§1) Kinetic analysis of the interaction of the CR2 fusion proteins with C3dg-biotin was performed using surface plasmon resonance (SPR) measurements made on a BIAcore 3000 instrument. Human C3dg-biotin, prepared as described (36), was bound to the surface of BIAcore streptavidin (SA) sensor chips by injecting C3dg-biotin at 50 μg/ml over the surface of one flow cell of the chip at 2 μl/minute for 20 minutes. The flow buffer was 0.5×PBS+0.05% Tween 20. The SPR signal from captured C3dg generated BIAcore response units ranging from 250-500. Control streptavidin-coated flow cells were run in the absence of protein. Binding was evaluated over a range of CR2 fusion protein concentrations (15.6-500 nM) in 0.5×PBS, 0.05% Tween 20 at 25° C. at a flow rate of 25 μl/minute. CR2 fusion protein samples were injected in 50 μl aliquots using the kinject command. Association of the fusion proteins with the ligand was monitored for 120 seconds, after which the complex was allowed to dissociate in the presence of buffer only for an additional 120 seconds. […] Binding data were fitted to a 1:1 Langmuir binding model using BIAevaluation Version 3.1 software (BIAcore) and evaluated for best fit by low residual and χ² values. […]
(§2) A comparison of the affinity of the different recombinant fusion proteins for the CR2 ligand C3dg was determined by surface plasmon resonance measurements. […]

For assay [2], the target named is T1, Human C3dg-biotin. Nature of the assay: SPR, C3dg-biotin captured on streptavidin chip. Here is the method: as §1, §2
(In SPR one partner is held on a chip, and binding of the other changes the refractive index at the surface.)

Assay [3] addresses T1, Human C3dg-biotin. In words: ELISA, wells coated with purified C3dg, anti-complement inhibitor antibodies. How it is done:
ELISA experiments were conducted as previously described. In ELISA experiments, CR2-containing constructs were added to wells coated with purified C3dg. Binding was detected by means of anti-complement inhibitor antibodies and enzyme-conjugated secondary antibodies. All CR2 containing constructs, but not sCD59 and sDAF bound to C3d.
In general terms: ELISA stands for enzyme-linked immunosorbent assay.

Assay [4] has as its target T1, Human C3dg-biotin. Nature of the assay: SPR, biotinylated C3dg on streptavidin BIAcore chip. How it is done: as §1, §2

T1 sequence (P01024 955-1303 limits assumed): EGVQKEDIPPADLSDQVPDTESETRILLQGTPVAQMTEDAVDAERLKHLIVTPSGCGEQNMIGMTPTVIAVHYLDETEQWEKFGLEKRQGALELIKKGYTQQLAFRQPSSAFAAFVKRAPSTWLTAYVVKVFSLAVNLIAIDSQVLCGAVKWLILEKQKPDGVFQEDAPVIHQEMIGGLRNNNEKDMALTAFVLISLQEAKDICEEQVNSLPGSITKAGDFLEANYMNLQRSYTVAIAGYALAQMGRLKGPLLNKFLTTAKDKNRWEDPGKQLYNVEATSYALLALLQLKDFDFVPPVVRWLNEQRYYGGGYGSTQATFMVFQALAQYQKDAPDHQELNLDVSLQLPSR

B1: CR2-CD59 (other)
chain: ISCGSPPPILNGRISYYSTPIAVGTVIRYSCSGTFRLIGEKSLLCITKDKVDGTWDKPAPKCEYFNKYSSCPEPIVPGGYKIRGSTPYRHGDSVTFACKTNFSMNGNKSVWCQANNMWGPTRLPTCVSVFPLECPALPMIHNGHHTSENVGSIAPGLSVTYSCESGYLLVGEKIINCLSSGKWSAVPPTCEEARCKSLGRFPNGKVKEPPILRVGVTANFFCDEGYRLQGPPSSRCVIAGQGVAWTKMPVCSGGGGSLQCYNCPNPTADCKTAVNCSSDFDACLITKAGLQVYNKCWKFEHCNFNDVTTRLRENELTYYCCKKDLCNFNEQLEN
notes: also called CR2-human CD59; fusion protein with CR2 at the N-terminus
With B1, the binding result with Human C3dg-biotin [1] is given as “binds”.

B2: soluble DAF (other, human, UniProt P08174 35-283, looked up)
chain: DCGLPPDVPNAQPALEGRTSFPEDTVITYKCEESFVKIPGEKDSVICLKGSQWSDIEEFCNRSCEVPTRLNSASLKQPYITQNYFPVGTVVEYECRPGYRREPSLSPKLTCLQNLKWSTAVEFCKKKSCPNPGEIRNGQIDVPGGILFGATISFSCNTGYKLFGSTSSFCLISGSSVQWSDPLPECREIYCPAPPQIDNGIIQGERDHYGYRQSVTYACNKGFTMIGEHSIYCTVNNDEGEWSGPPPEC
notes: range 1-249; also called sDAF; untargeted sDAF
Regarding B2, in the assay with Human C3dg-biotin [2], the binding result is “no binding”.

B3: DAF-CR2 (other)
chain: DCGLPPDVPNAQPALEGRTSFPEDTVITYKCEESFVKIPGEKDSVICLKGSQWSDIEEFCNRSCEVPTRLNSASLKQPYITQNYFPVGTVVEYECRPGYRREPSLSPKLTCLQNLKWSTAVEFCKKKSCPNPGEIRNGQIDVPGGILFGATISFSCNTGYKLFGSTSSFCLISGSSVQWSDPLPECREIYCPAPPQIDNGIIQGERDHYGYRQSVTYACNKGFTMIGEHSIYCTVNNDEGEWSGPPPECRSSGGGGSGGGGSGGGGSISCGSPPPILNGRISYYSTPIAVGTVIRYSCSGTFRLIGEKSLLCITKDKVDGTWDKPAPKCEYFNKYSSCPEPIVPGGYKIRGSTPYRHGDSVTFACKTNFSMNGNKSVWCQANNMWGPTRLPTCVSVFPLECPALPMIHNGHHTSENVGSIAPGLSVTYSCESGYLLVGEKIINCLSSGKWSAVPPTCEEARCKSLGRFPNGKVKEPPILRVGVTANFFCDEGYRLQGPPSSRCVIAGQGVAWTKMPVC
notes: also called human DAF-CR2; fusion protein with CR2 at the C-terminus
Take B3: the binding result with Human C3dg-biotin [3] is given as “binds”.

B4: soluble CD59 (other, human, UniProt P13987 26-102, looked up)
chain: LQCYNCPNPTADCKTAVNCSSDFDACLITKAGLQVYNKCWKFEHCNFNDVTTRLRENELTYYCCKKDLCNFNEQLEN
notes: also called sCD59; untargeted sCD59
As to B4, the binding result with Human C3dg-biotin [4] is “no binding”.
